Test results as given in a protein production outcome set (Wang et al. 2014).

Test: label from the status in PepcDB records

Sequence	protein production
MKKVSIIIPFKGQTEAELMLPLSSIYNQIGVDLSQLDIHLVNDGGKTIDLSKFDVLADRLEIHYHEIPNGGPGVARQYGIDNSISEYIMFIDADDVLYYVGALWPFYNASNQGHQMIRASYWEQIAGNPYTYTVHGNGDRKAAYGKWYKRSYIEMLGLRFMPDLPIYEDTYFVGLACELATDTCFLEEKVYMWLANPNSITRTVENKFNYQAHIYARENRYWFEMIRKWKPECLVTDFENYLTNMYLKSQKYPPVDEKAWWEEQHKLITSVSDIFSGWTQELQKQVEDKSANPQNEWHGIETDGFKEWATQSLPW	failed
MIATIQNEKVIVSISDKGAELQSVRLKEDNTEYLWQGDSTYWGRRAPILFPIVGRLVDNTYYVDDKPYSLTQHGFARDLTFTVKEQSETKITYIVTSNEETLKKYPYEFELLVSYELDGQIVHVTYEVNNPTSKEMFFSIGAHPGFNFPLLEGESFTDYHLSFNGSERLETSVLEGPYLSNKKQLIAESTNELPLTYDLFKNDALIFENMNTDEISIRSHKHNKFVKVEFDGFPFVGVWTPGENAPFLCIEPWYGIADEVNPAKDFKEKKGIQSLQANETFTCRYSITIG	failed
MNKFVKSLLVAGSVAALAACSSSNNDAAGNGAAQTFGGYSVADLQQRYNTVYFGFDKYDITGEYVQILDAHAAYLNATPAAKVLVEGNTDERGTPEYNIALGQRRADAVKGYLAGKGVDAGKLGTVSYGEEKPAVLGHDEAAYSKNRRAVLAY	not failed
MHHWVQASSSDFSGTPPQARSGHTAVNVGKSMVVVFGGLVDKKFLSDIIVYDIENKLWFEPECTGSESEGQVGPTPRAFHVAITIDCHMFIFGGRSGGKRLGDFWVLDTDIWQWSELTSFGDLPTPRDFAAAAAIGSQKIVLCGGWDGKKWLSDVYVMDTMSLEWLELSVSGSLPPPRCGHTATMVEKRLLVFGGRGGGGPIMGDLWALKGLIDEERETPGWTQLKLPGQAPSSRCGHTVTSGGHYLLLFGGHGTGGWLSRYDVYYNDTIILDRVTAQWKRLPIGNEPPPPRAYHTMTCIGARHLLIGGFDGKLTFGDLWWLVPEDDPIAKRSSVPQVVNPPEIKESERELDKERGQDGFSIVDLQQKMGISVSSGLRLQIPEESEDQEFVELGTRLIEGDVVDERASMIQMAAQALRQHWKQSTPRTLQLKELGSLLRDYQRLVTRIFTTQSSLTSADFGLPGTKTFTFYHIKSSSELRINDISKLLEEYKTLVI	not failed
MSQRVSPTLIGLFVVGALALGVVGVGAFGSGQFFEQRTTFISYFDESVNGLDVGAPVKFKGVPIGEVTDINLRVDLENETFQVPVQYAINLDPVTDTTGARLNLDDPTLLRDQIEDGLRAQLQLESIVTGKLYVELTYISDPDSAVYAQGPPSRLSIPTELSPLAKLGEGASGLVTNLRQFDVTQINENLVTFLVNANDKLEALDAEAINRSALSTIESVRKVVESKEVRTALQDMPKATERLRATIKDAQALIQRLDRGVEPTADELEKTSRQLRATLKRMRRTMDEVDQTLSPNSGIGYQMNEALSNLSEATEALRVLVQSLERNPSMFLRGREEPPPSNQQ	failed
MPDKFNMQSPPFNRLTAEQQHQLRSALDVAYFRQRDVLIDAQHPVTHLHILIKGTVEERSPDGKEVFAHYANDDLFDVRAMFEELSKHQYMALEDTLSYLLPKSIFLQLYEQNGEFAAYFDNNLAKRQELIEAAAQQKNIAEFILTKVDRSIYHPPFILSPEQPIHSVTQQLKERGIDAALVELHPSDPRLAHNHAHPYAIVTRTNMLHAVMLEGRPLDTPVGEIATFPVLHVDEGDFLFNAMVMMTRQRIKRVMVCLGNQAVGLLSLIQILSAFSTHSHVLTLAIARAASIDELALAANKQRELVESLMSRGVRTRFVMELIAAVNEQIIEKAFELVVPPALHDQCCLVVLGSEGRGEQILKTDQDNALIIQDGLEWHQCQPIMETLTHTLLQLGYPLCPGKVMVNNPKWVRSQSDWKRTLTDWVKAARPEQVMDIAIFADAHAVAGNRALLAPVKAHLQHLMAGQELILAEFTRPALNFSVPLTLFGNVKSSKQGIDIKQGGIFPIVHGVRALSLEHAIDANNTFDRIEALVKKRVLEQETGDNLSEAFKLFLKLRLAQQLGNQHSTNQLDFKQLDRTERDLLRHSLHVVKKFKQWLGYHYQIRD	failed
MLLKPDQRLKLDDTDDNLFYAYPRFVTHVDEGFIQRLTDLYRERLQPNTRILDMMSSWVSHLPEEIKFAHVEGHGLNAEELKRNPRLNHYFVQNLNENPGLPLPDQEFDAVLNCVSVQYLQYPEAVFSEIHRILKPGGVAIISFSNRMFYQKAIQAWRDASEPGRLELVKRYFASVPGFSTPEIIARKSTAPNFLQWLGAPGGDPFYAAIAHRKLEHHHHHH	failed
MANVFLISSRNRRSMRTTTESKPKNLTVKRSDSSSDYNYSCKKHPKHRQSPGICSLCLNESLSKLSSEFYDYSSSMSSSSLAKTMSSCSSASSESESDFSSTAISSYYSSVSSCLSPLQHRYSEIVVNKKKKKHVKKQSFLSRLFLKQRIQTKAVIGWHMTLQLAIQLMYGKRKKTCHASFIQVWY	failed
MLVWEELREKALNKIYHDKEIGYLDPDILGFLLAFYRNRNDVYTQSSCSGRITIVDAEMPWDRKNSTIIFKNHLRITEQDLEDVLSKNQVRRLWLIVQGPIIHIYAKNIETGWDILKIAREAGFKHSGILATNQKGVLVELRTGIRMVHLLRESNTERVDKDKIKTLVNVCNEVLARGKQKMNLLKDLLSSSSNNSMELGKNSKLKTPI	not failed
MGNCCGTAGSLAQNDNKPKKGRKKQNPFSIDYGLHHGGGDGGGRPLKLIVLNDPTGREIESKYTLGRELGRGEFGVTYLCTDKETDDVFACKSILKKKLRTAVDIEDVRREVEIMRHMPEHPNVVTLKETYEDEHAVHLVMELCEGGELFDRIVARGHYTERAAAAVTKTIMEVVQVCHKHGVMHRDLKPENFLFGNKKETAPLKAIDFGLSVFFKPGERFNEIVGSPYYMAPEVLKRNYGPEVDIWSAGVILYILLCGVPPFWAETEQGVAQAIIRSVLDFRRDPWPKVSENAKDLIRKMLDPDQKRRLTAQQVLDHPWLQNAKTAPNVSLGETVRARLKQFTVMNKLKKRALRVIAEHLSDEEASGIREGFQIMDTSQRGKINIDELKIGLQKLGHAIPQDDLQILMDAGDIDRDGYLDCDEFIAISVHLRKMGNDEHLKKAFAFFDQNNNGYIEIEELREALSDELGTSEEVVDAIIRDVDTDKDGRISYEEFVTMMKTGTDWRKASRQYSRERFNSISLKLMQDASLQSCVFDILANERAEYGDQERKTVLAFGCV	failed
MPLPRVSPVPLAGPGRRGEGGVSSAPLAGGPWAAGRRRLPGLLIIFRRVFTVGFWVGGVLAKKYPFLLGLDRVLELVTGFRGEAARRVLAGDEDLVGLGFRRAVAAVEGWLDYPFADTVEGEVASFYLGLAIAYRAGPAAVSRVVAGEYLRASRLLAGEPGEVASGILGGLGFPVERGGLSVPWVVDRRGVVMLPLGWRMGVDVFLRLSAADESSPELRLANQMLLSGSVYLSDARLRALASAASRLAIESRVSEAASLESEAVERYARHLAALAEGGLPFIPEALPQCIKNVFAKAVGGERLGWLELYLALVFLARIRAGPDAVEELLTPSLGERVARLLARVYSQAPPADHQLPPCEVLAASGVCRCRGSLLSEYRRSVRSLLGLPDRGAGRR	failed
MPKASLIIRERGLPKREVLLSPDRQWTIGRQLDCSIRLTDAYVSRLHAVINAFLFRGQPLYFIRDAHSRNGTFLNGFPLQHSTLLHHEDVIGVGTTLLVFYYPDMFREISLDECPLEHHHHHH	not failed
DIGGITGSFYLNTNALPTNADKIKSLILEVIEQCQIKSDDVVLYGCSKGGTAAVYHGLTNNYKIVAV	failed
MKLDHNFSNQAIDAFIKISALSVLVLWCFSILKPFLLLMVWGGIIATALYPIVAFFSKKTALSESKVSIILTVIGVLLLLIPLVALSTGIYTSGTELFLGYQDGSIAIPKPKERMQDWPIIGHEAYSFMSLASSNLESLLFKYSAEVKVVAAKAASLVGSLGGGFIQFIVSTIIAGVFMANAAKCERAFILITNRLTGKHGEELIKLSKITIRSVVQGVIGVAVIQATMAGLGMAVVGISASVLGLWVFLVLVFAIIQLPPILILLPIIFYVFSVDTTTAGVLFAVWCVLVSSSDAILKPVLLSRGSHIPIIVILLGALGGMAMSGIVGLFVGAVVLSLTYQMFTVWLKNEAEETQNAKDNP	failed
MPKFDVSKSDLERLIGRSFSIEEWEDLVLYAKCELDDVWEENGKVYFKLDSKDTNRPDLWSAEGVARQIKWALGIEKGLPKYEVKKSNVTVYVDEKLKDIRPYGVYAIVEGLRLDEDSLSQMIQLQEKIALTFGRRRREVAIGIFDFDKIKPPIYYKAAEKTEKFAPLGYKEEMTLEEILEKHEKGREYGHLIKDKQFYPLLIDSEGNVLSMPPIINSEFTGRVTTDTKNVFIDVTGWKLEKVMLALNVMVTALAERGGKIRSVRVVYKDFEIETPDLTPKEFEVELDYIRKLSGLELNDGEIKELLEKMMYEVEISRGRAKLKYPAFRDDIMHARDILEDVLIAYGYNNIEPEEPKLAVQGRGDPFKDFEDAIRDLMVGFGLQEVMTFNLTNKEVQFKKMNIPEEEIVEIANPISQRWSALRKWILPSLMEFLSNNTHEEYPQRIFEVGLATLIDESRETKTVSEPKLAVALAGTGYTFTNAKEILDALMRHLGFEYEIEEVEHGSFIPGRAGKIIVNGRDIGIIGEVHPQVLENWNIEVPVVAFEIFLRPLYRH	not failed
MKRIIILSPFRGLFRSLLYFLLGLIMALISAGYFSQLFSIVGINRDIAIIISITISFLSLFSSPFNLVLTEVKKEAIAIEEDVVFFFGFPIFIPRISRQNMNTLIAVNLGGALIPLGVSLFLMYELQAYIVYFIINIIVVIIVSKLFSRVIRGVGVIMHPIIPSIFSVISSYVLFYKLHILIPLSAYIGSVLGTLIGADLLNLRRIINEARPQVISIGGMGTFDGIFVSGIISVFISELLVII	failed
MRVISGEYGGRRLKALDGDNTRPTTDKVKESIFNMIGPYFDGGMALDLYSGSGGLAIEAVSRGMDKSICIEKNFAALKVIKENIAITKEPEKFEVRKMDANRALEQFYEEKLQFDLVLLDPPYAKQEIVSQLEKMLERQLLTNEAVIVCETDKTVKLPETIGTLKKTRETVYGITQVTIYRQEA	not failed
MRTWKMRKDGQRIDYLGRKWRNLGGPFMEVSRVVTWIIIITLVALAIKTILPFFSPLFFAFITAYALYPLHIKLKERIGSKNSAILLTLFLLLGALMILLILVYTLTPVIGQAYDYLTNLEKIKINIPLVPKSVISSLEGVIDEFIERGKGYLVSLTFSVPKYLLQVIVYLTFVYFFLVKEKEARELITFEDEKLIRIIERGNLTLQALIRVWLLLNIVKGILMTLGFLIFKVSNLPTAILAGLLTVLFSFIPLFEGWMIWLAGAFYLVKQGHIIAGIGLAVYGFTLVSPLPDFTIRPKLVAREAEFNDVLVLIGMIGGTWGLGLKGLIIGPIVLNVAIEMLREWKNVQAKTERS	failed
MPGQSRFPLPLIAAFFALYVIWGSTYLVIRIGVEYWPPLMLGGIRFIIAGSLMYAFLRWRGVPAPTWAQWKAAGIIGVLLLSCGNGAVTLAEHSGVTSGVAALAVATVPLFTLLCGYFWGARNTRLEWAGIVLGMIGIGMLNLGSNLQSSPMGAALLLFAAAAWAFGSVWSKHLPLPQGAMASAAEMLVGGVVLMIGSALSGEHLDTLPPMEGWLALAYLAGFGSIIAFNAYMYLLKHVRPAAATSYAYVNPAVAVLLGIVFVGETIGIEEAMAMLVIISAVVLIGLPQWRKPKAAAQEEAA	failed
MMFGRFSDRAQKMIYYAQEEAQNFKHGYVGTEHILLGILRDENGKAQSLLANMGVTIEKVRRLIEEYEGFGDSDLYKEEPPLTPRTKRLLEISLLEARNLNHNYINPEHVLLALIRESEGVAFTILGNLGVDFERLRKEILDSLS	failed
FYTNRTVVKLMTMIMAPQPGESVYDPTCGSGGLLLNCALHLKDEGKEYRTLKLYGQEINLLTSAIARMNMFMHGIEEFDIVRGNTLSNPGLLENDELKKFNVILANPPYSIKSWDRKAFESDPYGRNVWGTPPQGCADYAFQQHIQKSLDLGNGRSISLWPHGILFRDAETAMRRKMIEQDQVECVIGLGPNLFYNSPMEACLLITKTNKIESKKDKILFINAVKEVRQDKNIGYLDQVHIDKIFNAYNKFENED	failed
